Data published in article PMC11401227, “The structure of DNA methyltransferase DNMT3C reveals an activity-tuning mechanism for DNA methylation” (The Journal of Biological Chemistry, 2024).

Target: the molecule itself
Assay: crystal structure; DNMT3C MTase domain-hDNMT3L C-terminal domain covalently bound to a 25-mer ZpG/CpG DNA, with SAH; 3.2 Å; crystals grown at 4 °C

B1: mouse DNMT3C MTase domain (residues 456–740) (domain or fragment, UniProt P0DOY1 456-740, looked up)
chain: AAKRRPIRVLSLFDGIATGYLVLKELGIKVEKYIASEVCAESIAVGTVKHEGQIKYVDDIRNITKEHIDEWGPFDLVIGGSPCNDLSCVNPVRKGLFEGTGRLFFEFYRLLNYSCPEEEDDRPFFWMFENVVAMEVGDKRDISRFLECNPVMIDAIKVSAAHRARYFWGNLPGMNRPVMASKNDKLELQDCLEFSRTAKLKKVQTITTKSNSIRQGKNQLFPVVMNGKDDVLWCTELERIFGFPEHYTDVSNMGRGARQKLLGRSWSVPVIRHLFAPLKDHFACE
notes: DNA methyltransferase DNMT3C, mouse, MTase domain, residues 456-740; synthetic DNA fragment; The His6-SUMO tag was still on the chain in the Ni-NTA co-purification step and was removed by ULP1 afterwards; also called DNMT3C methyltransferase domain; WT DNMT3C; source: E. coli BL21 (DE3) RIL, co-expressed with DNMT3L, purified (Ni-NTA, Heparin, SEC); not shown: His6-SUMO, N-terminal, cleaved
binding result: binds
